In publication PMC3282739:

Tests used:
[1] = target: Cthe_2751 (Clostridium thermocellum); test: AUC; sedimentation velocity in an analytical ultracentrifuge; curve generated with Sedfit
[2] = target: Cthe_2751 (Clostridium thermocellum); test: SEC; Hi Load 10/300 Superdex G75 gel filtration column equilibrated with 20 mM Tris-HCl, 100 mM NaCl, pH 8.0

stoichiometry N [1]: 2
stoichiometry N [2]: 2
Substance: Cthe_2751 (natural protein)
